This assay addresses BACE1-GFP (UniProt P56817). Put plainly: co-IP.
UniProt P56817, sequence (P56817 46-501): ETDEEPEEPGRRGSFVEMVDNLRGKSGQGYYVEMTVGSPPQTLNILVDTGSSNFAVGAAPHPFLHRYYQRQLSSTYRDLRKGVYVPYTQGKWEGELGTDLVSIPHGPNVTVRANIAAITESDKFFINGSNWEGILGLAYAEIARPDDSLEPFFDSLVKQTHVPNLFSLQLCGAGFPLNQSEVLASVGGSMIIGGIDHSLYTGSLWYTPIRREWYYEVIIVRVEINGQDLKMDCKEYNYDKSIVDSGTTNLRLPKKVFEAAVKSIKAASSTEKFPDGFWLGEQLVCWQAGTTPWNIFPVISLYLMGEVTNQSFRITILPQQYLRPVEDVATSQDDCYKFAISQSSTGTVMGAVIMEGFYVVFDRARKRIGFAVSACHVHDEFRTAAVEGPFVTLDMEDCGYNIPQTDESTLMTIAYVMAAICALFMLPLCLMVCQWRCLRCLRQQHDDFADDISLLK

As for “Bin1-KR (siRNA-resistant neuronal Bin1-MYC with the LOAD mutation K358R, rs138047593) (from UniProt O08539-1 1-588) (natural protein)”, the percent reduction of co-immunoprecipitated Bin1 against Bin1-WT stood at 65%.

Values taken from publication PMC8413894.
